From patent publication US20190381169A1, “PHARMACEUTICAL COMBINATIONS FOR IMMUNOTHERAPY” (Technische Universitat Dresden, priority 2014, published 2019)
“Also recorded” adds a separate entry of the source.

Target: T1, p75^NTR (Homo sapiens, UniProt P08138)
T1 sequence (P08138 29-427): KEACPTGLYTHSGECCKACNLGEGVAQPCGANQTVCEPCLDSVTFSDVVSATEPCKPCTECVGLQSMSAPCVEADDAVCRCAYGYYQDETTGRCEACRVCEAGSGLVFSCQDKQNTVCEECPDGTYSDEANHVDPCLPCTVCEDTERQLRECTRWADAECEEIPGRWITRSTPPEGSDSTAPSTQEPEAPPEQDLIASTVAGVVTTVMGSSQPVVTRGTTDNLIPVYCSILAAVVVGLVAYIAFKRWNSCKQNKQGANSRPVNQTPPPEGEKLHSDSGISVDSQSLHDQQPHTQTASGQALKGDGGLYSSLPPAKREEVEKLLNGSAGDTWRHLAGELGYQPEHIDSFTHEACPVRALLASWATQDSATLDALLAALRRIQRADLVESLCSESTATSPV
Assay: Antigen mediated proliferation and cytokine secretion of CD4+ T-cells co-cultured with autologous PDC of allergic donors
Type: cell-based
Parameters: nerve growth factor receptor p75^NTR, which is expressed by human and murine plasmacytoid dendritic cells (PDC); endogenous in cells; host or cells: primary human plasmacytoid dendritic cells (BDCA-4+ selection) from buffy coats or from peripheral blood of allergic donors
Description: CD4^+ T helper cells and PDC used in antigen mediated autologous CD4^+ T-cell proliferation assays were purified from peripheral blood (80 ml) obtained from specified donors who are known to have allergy against certain allergens. Peripheral blood was drawn in tubes containing Li-Heparin as anti-coagulant (S-Monovette Li-Heparin 7.5 ml, Sarstedt). CD4^+ T helper cells were purified from peripheral blood mononuclear cells by negative selection using CD4^+ T-cell isolation kit II (Miltenyi Biotec), as per manufacturer's instructions with slight modifications. Briefly, the cell pellet was re-suspended in 50 μl PBS E/B. Then 12 μl of Biotin-labelled antibody cocktail per 10^7 total cells were added and the cell suspension was incubated at 4° C. for 15 minutes. 50 μl of PBS E/B was added followed by addition of 25 μl of anti-biotin microbeads per 10^7 total cells. Cells were incubated at 4° C. for another 20 minutes, followed by washing with 10 ml PBS E/B and centrifugation (470 g for 6 minutes). […] The purity of isolated CD4^+ T helper cells was over 95% as assessed by flow cytometric analysis after co-staining with monoclonal mouse anti human CD3-PE (BD Biosciences) and monoclonal mouse anti human CD4-FITC (BD Biosciences). […]
Purified CD4^+ T helper cells (see above) were washed once with PBS. […] Cell number was determined.
Antigen mediated CD4^+ T helper cell proliferation responses were assayed using purified and CFSE labelled CD4^+ T helper cells in co-culture with purified PDC/BDAC4^+ cells. […] After 5 days of co-culture, supernatant was analyzed for Th1/Th2 cytokines by using BD cytokine bead array (CBA) Human Th1/Th2 cytokine kit (BD Biosciences) and percentages of proliferating CFSE-low CD4^+ T-cells were analyzed by flow cytometry.
The concentrations of IL-2, IL-4, IL-5, IL-10, IFNγ and TNFα in the supernatant were determined by using the CBA kit following manufacturer's instruction with modification in data analysis using Microsoft Excel. […]

## NGF: Nerve growth factor, best characterized neurotrophin; natural p75^NTR agonist (R&D Systems)
CD4+ T-cell/PDC co-culture with allergen, NGF vs without NGF
  secretion of IL-2 and IL-5: dose-dependent increased secretion; also recorded: increasing secretion
co-culture with autologous PDC plus specific allergen, NGF (25 ng/ml elsewhere in the source) vs without NGF, 5 days
  antigen (allergen) mediated CD4+ T-cells proliferation (CFSE): significantly increased; also recorded: increased proliferation
With or without antigen plus minus NGF or with NGF alone
  proliferation of T-cells on its own (without PDC co-culture): did not show any proliferation
